Results from article PMC11655644, “Cardiocutaneous syndrome is caused by aggregation of iASPP mutants” (Cell Death Discovery, 2024).

T1: iASPP CTD WT (C-terminal domain, AA625-828) (human, UniProt Q8WUF5 625-828)
T1 construct: iASPP (encoded by PPP1R13L), C-terminal domain with four ankyrin repeats and an SH3 domain, AA625-828 (CTD starting from L625); also called iASPP WT CTD; source: E. coli BL21(DE3) Rosetta, purified (IMAC, TEV cleavage, reverse Ni, HiTrap Q, Superdex 75 SEC); not shown: His10, N-terminal, cleaved
T1 sequence (looked up): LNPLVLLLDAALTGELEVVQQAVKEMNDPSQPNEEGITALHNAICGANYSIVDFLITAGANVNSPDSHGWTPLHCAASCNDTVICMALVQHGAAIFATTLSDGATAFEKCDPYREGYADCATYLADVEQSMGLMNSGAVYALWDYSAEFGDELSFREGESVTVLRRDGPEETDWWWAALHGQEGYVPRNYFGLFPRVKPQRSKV

B1: PP1α (AA311-330) peptide (peptide, UniProt P62136 311-330, looked up)
peptide: GLNPGGRPITPPRNSAKAKK
notes: PP1α (protein phosphatase 1 catalytic subunit alpha), peptide AA311-330; also called PP1α peptide

Tests used:
[1] = molecular target: iASPP CTD N813A Y814A double mutant (human) (UniProt Q8WUF5); assay: ITC; VP-ITC, 12 °C, 25 steps of 10 µl; 450 µM iASPP CT peptides titrated to 30 µM purified ASPP CTDs; 25 mM HEPES pH 7.5, 150 mM NaCl, 500 µM TCEP
[2] = molecular target: iASPP CTD WT (C-terminal domain, AA625-828) (human) (UniProt Q8WUF5); assay: as above
[3] = molecular target: T1, iASPP CTD WT (C-terminal domain, …); assay: thermal shift assay; 20 µM CTD with SYPRO Orange and 20 or 40 µM PP1α (AA311-330) peptide in assay buffer; 4 to 99 °C at 0.1 °C/s; conditions: both partners purified

Molecule	Kd [1]	Kd [2]	increase of the melting temperature with peptide [3]
iASPP A620P peptide spanning the sequence around the mutation	5 µM	0.135 µM	–
iASPP WT peptide spanning the sequence around A620	5 µM	0.743 µM	–
B1	–	–	10 °C
